Measurements reported in patent publication US12280095B2, “Tissue modifier and uses therefor” (Fibrosoft Pte Ltd, priority 2021, dated 2025).

Tested on: Dupuytren's disease
Assay: Treatment of Dupuytren's disease patients by intralesional injection of tPA in combination with hyaluronidase
Format: in vivo, human

B1: ALTEPLASE: tissue plasminogen activator (tPA), collagenase-producing agent; comparator when administered on its own (protein, UniProt P00750 36-562, looked up)
Tissue-type plasminogen …: SYQVICRDEKTQMIYQQHQSWLRPVLRSNRVEYCWCNSGRAQCHSVPVKSCSEPRCFNGGTCQQALYFSDFVCQCPEGFAGKCCEIDTRATCYEDQGISYRGTWSTAESGAECTNWNSSALAQKPYSGRRPDAIRLGLGNHNYCRNPDRDSKPWCYVFKAGKYSSEFCSTPACSEGNSDCYFGNGSAYRGTHSLTESGASCLPWNSMILIGKVYTAQNPSAQALGLGKHNYCRNPDGDAKPWCHVLKNRRLTWEYCDVPSCSTCGLRQYSQPQFRIKGGLFADIASHPWQAAIFAKHRRSPGERFLCGGILISSCWILSAAHCFQERFPPHHLTVILGRTYRVVPGEEEQKFEVEKYIVHKEFDDDTYDNDIALLQLKSDSSRCAQESSVVRTVCLPPADLQLPDWTECELSGYGKHEALSPFYSERLKEAHVRLYPSSRCTSQHLLNRTVTDNMLCAGDTRSGGPQANLHDACQGDSGGPLVCLNDGRMTLVGIISWGLGCGQKDVPGVYTKVTNYLDWIRDNMRP
ALTEPLASE administered on its own, patients with Dupuytren's disease
  mean time required to observe discernible reduction in volume of the fibromatosis, reduction of contracture and improvement in the range of motion: 4-6 weeks
ALTEPLASE alone
  time required to obtain similar effects (volume reduction, flexion improvement): 4-6 weeks
